{
  "source": "paper PMC4830470",
  "about": "(Nature, 2015)",
  "target": "the molecule itself",
  "test": "SEC",
  "data": [
    {"protein": "human class A J-protein DNAJA2 (JA2), wild type (natural protein) not shown", "values": [
      {"measurement": "stoichiometry N", "result": 2}
    ]}
  ]
}
